The record followed here is WO2018092907A1 (dated 2018).

Substitutions are numbered along the chain they refer to.

T1: TNFR1 on transiently transfected cells (UniProt P19438 30-455, limits assumed)
T1 construct: whole, on cells
T1 sequence (looked up): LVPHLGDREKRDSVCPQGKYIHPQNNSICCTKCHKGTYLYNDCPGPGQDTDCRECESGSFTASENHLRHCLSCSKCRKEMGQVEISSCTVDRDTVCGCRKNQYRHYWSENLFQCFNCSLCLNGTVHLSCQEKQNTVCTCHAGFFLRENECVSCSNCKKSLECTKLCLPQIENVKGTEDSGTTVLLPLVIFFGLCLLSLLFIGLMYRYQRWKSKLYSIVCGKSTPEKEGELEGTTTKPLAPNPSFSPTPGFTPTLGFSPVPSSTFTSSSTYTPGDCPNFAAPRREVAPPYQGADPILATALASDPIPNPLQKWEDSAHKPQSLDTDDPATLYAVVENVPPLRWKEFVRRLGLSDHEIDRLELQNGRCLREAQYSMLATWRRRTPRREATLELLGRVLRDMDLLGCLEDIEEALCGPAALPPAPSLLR

T2: human TNFR2 expressed on the cell membrane (membrane-type TNFR2) (human, UniProt P20333 23-461)
T2 construct: also called TNFRSF1B; cell membrane type TNFR2
T2 sequence: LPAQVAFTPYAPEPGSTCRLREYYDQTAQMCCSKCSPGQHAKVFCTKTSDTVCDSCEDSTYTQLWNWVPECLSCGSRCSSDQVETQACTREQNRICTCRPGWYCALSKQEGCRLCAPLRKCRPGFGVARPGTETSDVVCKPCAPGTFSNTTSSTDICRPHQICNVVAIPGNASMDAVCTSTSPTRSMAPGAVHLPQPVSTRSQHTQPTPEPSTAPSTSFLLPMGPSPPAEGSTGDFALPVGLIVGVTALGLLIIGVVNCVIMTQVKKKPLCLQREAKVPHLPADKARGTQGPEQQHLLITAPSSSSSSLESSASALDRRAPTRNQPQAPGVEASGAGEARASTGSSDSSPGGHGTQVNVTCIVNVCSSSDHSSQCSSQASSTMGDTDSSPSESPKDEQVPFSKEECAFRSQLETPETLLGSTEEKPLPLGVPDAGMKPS

B1: TR109 (anti-TNFR2 antagonist antibody, mouse monoclonal) (antibody, V domains shown)
VH: QVQLKESGPGLVAPSQSLSITCTVSGFSLTVYGVNWVRQPPGKGLEWLGMIWGDGSTAYNSALKSRLTITKDNSKTQVFLKMNSLQTDDTARYYCARDGRRYALDYWGQGTSVTVSS
VL: DIVLTQSPTSLAVSLGQRATISCRASESVDSYGDSFLHWYQQKPGQPPILLIYRASNLDSGIPARFSGSGSRTDFTLTINPVEADDVATYYCQQSNEDPYTFGGGTKLEINR
notes: also called Ep9: TR109; Ep7
B2: humanized TR92 antibody (TR92HUVH1 + TR92HUVL1) (antibody, V domains shown)
VH: QVQLVQSGAEVKKPGASVKVSCKASGYTFTESIIHWVRQAPGQGLEWMGWFYPGSDNINYNEKFKDRVTMTRDTSISTAYMELSRLRSDDTAVYYCARHEGPYVYFDYWGQGTTVTVSS
VL: DIVMTQSPDSLAVSLGERATINCKASQDVSTAVAWYQQKPGQPPKLLIYWTSTRHTGVPDRFSGSGSGTDFTLTISSLQAEDVAVYYCQHHYSTPYTFGQGTKLEIK
notes: also called one of the four humanized TR92 antibodies
B3: humanized TR92 antibody (TR92HUVH1 + TR92HUVL2) (antibody, V domains shown)
VH: B2 VH
VL: DIQMTQSPSSLSASVGDRVTITCKASQDVSTAVAWYQQKPGKAPKLLIYWTSTRHTGVPSRFSGSGSGTDFTLTISSLQPEDFATYYCQHHYSTPYTFGQGTKLEIK
notes: as for B2
B4: humanized TR92 antibody (TR92HUVH2 + TR92HUVL2) (antibody, V domains shown)
VH: B2 VH with P41T, D73N, R85S, D89E
VL: B3 VL
notes: as for B2
B5: humanized TR92 antibody (TR92HUVH2 + TR92HUVL1) (antibody, V domains shown)
VH: B2 VH with P41T, D73N, R85S, D89E
VL: B2 VL
notes: as for B2
B6: humanized TR109 antibody (TR109HUVH1 + TR109HUVL1) (antibody, V domains shown)
VH: QVQLQESGPGLVKPSGTLSLTCAVSGGSISVYGVNWVRQPPGKGLEWIGMIWGDGSTAYNSALKSRVTISVDKSKNQFSLKLSSVTAADTAVYYCARDGRRYALDYWGQGTLVTVSS
VL: DIVMTQSPDSLAVSLGERATINCRASESVDSYGDSFLHWYQQKPGQPPKLLIYRASNLDSGVPDRFSGSGSGTDFTLTISSLQAEDVAVYYCQQSNEDPYTFGQGTKLEIK
notes: also called one of the four humanized TR109 antibodies
B7: humanized TR109 antibody (TR109HUVH1 + TR109HUVL2) (antibody, V domains shown)
VH: B6 VH
VL: EIVLTQSPATLSLSPGERATLSCRASESVDSYGDSFLHWYQQKPGQAPRLLIYRASNLDSGIPARFSGSGSGTDFTLTISSLEPEDFAVYYCQQSNEDPYTFGQGTKLEIK
notes: as for B6
B8: humanized TR109 antibody (TR109HUVH2 + TR109HUVL2) (antibody, V domains shown)
VH: B6 VH with G16E, A23T, G27Y, V37I, K73T
VL: B7 VL
notes: as for B6
B9: humanized TR109 antibody (TR109HUVH2 + TR109HUVL1) (antibody, V domains shown)
VH: B6 VH with G16E, A23T, G27Y, V37I, K73T
VL: B6 VL
notes: as for B6

For the first experiment, the target named is T1, TNFR1 on transiently transfected cells. In words: flow cytometry on transiently transfected cells. A general note: A flow cytometer gives signals particle by particle.
As to B1, the binding result is “no binding”.

Another experiment concerns the target T2, human TNFR2 expressed on the cell …. The experiment is described as follows: flow cytometry on cells with transient expression of TNFR2 against untreated cells.
Consider B2, for which the binding result was “binds”.
Take B3: the binding result is listed as “binds”.
On the same count and under the same terms, with B4 the entry was “binds”; with B5, “binds”; with B6, “binds”.
For B7, the binding result is listed as “binds”.
The same measure, in the same setting: to B8 belongs “binds”.
Turning to B9, the binding result is recorded as “binds”.
